Measurements reported in patent US20050266509.
Where a chain is given by its changes, count along the chain named.

Assays:
[1] = target: NR2B, full length clone (NMDA receptor subunit), Q13224
[2] = target: constitutive active Src kinase

NR2B, full length clone (NMDA receptor subunit), Q13224, sequence (Q13224 27-1484): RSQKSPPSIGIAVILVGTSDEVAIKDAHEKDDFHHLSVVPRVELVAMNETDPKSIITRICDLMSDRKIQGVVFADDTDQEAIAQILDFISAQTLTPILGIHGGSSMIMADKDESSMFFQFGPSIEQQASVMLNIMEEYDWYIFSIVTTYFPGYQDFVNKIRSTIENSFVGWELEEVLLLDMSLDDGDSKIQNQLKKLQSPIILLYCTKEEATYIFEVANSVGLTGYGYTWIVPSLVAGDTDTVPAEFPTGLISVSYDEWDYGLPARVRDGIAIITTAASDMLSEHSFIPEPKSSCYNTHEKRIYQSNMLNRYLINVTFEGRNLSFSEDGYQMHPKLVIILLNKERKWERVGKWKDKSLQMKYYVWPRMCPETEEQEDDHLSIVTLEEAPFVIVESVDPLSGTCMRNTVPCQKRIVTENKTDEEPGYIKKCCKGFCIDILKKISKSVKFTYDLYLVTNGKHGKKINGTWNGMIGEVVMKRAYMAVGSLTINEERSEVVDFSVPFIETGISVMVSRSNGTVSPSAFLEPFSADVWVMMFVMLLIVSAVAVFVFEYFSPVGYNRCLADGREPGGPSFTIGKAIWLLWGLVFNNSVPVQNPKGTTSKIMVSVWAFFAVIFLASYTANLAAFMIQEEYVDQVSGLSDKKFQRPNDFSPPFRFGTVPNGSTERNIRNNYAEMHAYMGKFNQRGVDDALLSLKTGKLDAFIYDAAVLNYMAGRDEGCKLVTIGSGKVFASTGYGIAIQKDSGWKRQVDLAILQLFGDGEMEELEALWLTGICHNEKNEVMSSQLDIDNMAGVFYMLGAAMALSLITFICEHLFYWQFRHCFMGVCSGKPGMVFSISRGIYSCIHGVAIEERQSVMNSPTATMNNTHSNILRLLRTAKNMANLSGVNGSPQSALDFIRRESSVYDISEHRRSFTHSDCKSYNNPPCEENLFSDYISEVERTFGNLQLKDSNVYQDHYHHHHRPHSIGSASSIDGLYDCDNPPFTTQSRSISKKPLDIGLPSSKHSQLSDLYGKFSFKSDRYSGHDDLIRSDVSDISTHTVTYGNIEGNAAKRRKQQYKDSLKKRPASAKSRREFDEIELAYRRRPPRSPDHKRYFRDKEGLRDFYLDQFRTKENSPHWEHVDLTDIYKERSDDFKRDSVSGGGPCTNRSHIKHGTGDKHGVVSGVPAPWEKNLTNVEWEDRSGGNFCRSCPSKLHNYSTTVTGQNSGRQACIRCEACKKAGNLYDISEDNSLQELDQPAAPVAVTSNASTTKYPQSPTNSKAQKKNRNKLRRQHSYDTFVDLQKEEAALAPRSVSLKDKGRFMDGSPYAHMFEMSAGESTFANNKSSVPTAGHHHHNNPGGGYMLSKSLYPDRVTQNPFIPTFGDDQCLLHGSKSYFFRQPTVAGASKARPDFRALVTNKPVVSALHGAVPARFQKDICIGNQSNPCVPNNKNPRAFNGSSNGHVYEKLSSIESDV

B1: PTPMEG, full length clone (amino-terminal myc-tag, c-terminal HA tag) (protein)
chain: MTSRFRLPAGRTYNVRASELARDRQHTEVVCNILLLDNTVQAFKVNKHDQGQVLLDVVFKHLDLTEQDYFGLQLADDSTDNPRWLDPNKPIRKQLKRGSPYSLNFRVKFFVSDPNKLQEEYTRYQYFLQIKQDILTGRLPCPSNTAALLASFAVQSELGDYDQSENLSGYLSDYSFIPNQPQDFEKEIAKLHQQHIGLSPAEAEFNYLNTARTLELYGVEFHYARDQSNNEIMIGVMSGGILIYKNRVRMNTFPWLKIVKISFKCKQFFIQLRKELHESRETLLGFNMVNYRACKNLWKACVEHHTFFRLDRPLPPQKNFFAHYFTLGSKFRYCGRTEVQSVQYGKEKANKDRVFARSPSKPLARKLMDWEVVSRNSISDDRLETQSLPSRSPPGTPNHRNSTFTQEGTRLRPSSVGHLVDHMVHTSPSEVFVNQRSPSSTQANSIVLESSPSQETPGDGKPPALPPKQSKKNSWNQIHYSHSQQDLESHINETFDIPSSPEKPTPNGGIPHDNLVLIRMKPDENGRFGFNVKGGYDQKMPVIVSRVAPGTPADLCVPRLNEGDQVVLINGRDIAEHTHDQVVLFIKASCERHSGELMLLVRPNAVYDVVEEKLENEPDFQYIPEKAPLDSVHQDDHSLRESMIQLAEGLITGTVLTQFDQLYRKKPGMTMSCAKLPQNISKNRYRDISPYDATRVILKGNEDYINANYINMEIPSSSIINQYIACQGPLPHTCTDFWQMTWEQGSSMVVMLTTQVERGRVKCHQYWPEPTGSSSYGCYQVTCHSEEGNTAYIFRKMTLFNQEKNESRPLTQIQYIAWPDHGVPDDSSDFLDFVCHVRNKRAGKEEPVVVHCSAGIGRTGVLITMETAMCLIECNQPVYPLDIVRTMRDQRAMMIQTPSQYRFVCEAILKVYEEGFVKPLTTSTNK
With B1 the “NR2B tyrosine phosphorylation, western blot with an NR2B phosphospecific antibody” value [1] was “In presence of the active wildtype PTPMEG phosphatase, both the NR2B subunit as well as Src kinase were dephosphorylated”, the “Src phosphorylation at position 418, western blot with anti PY418 antibody” value [2] was “In presence of the active wildtype PTPMEG phosphatase, both the NR2B subunit as well as Src kinase were dephosphorylated” and the “phosphorylation at Y418, western blot with a Src/fyn specific phosphoantibody” value [2] was “In presence of PTPMEG (identified with a c-myc antibody from Upstate) there is a dephosphorylation of Src and fyn at position Y418”.

B2: PTPMEG-CS (inactive PTPase), full length clone (amino-terminal myc-tag, c-terminal HA tag) (protein)
chain: B1 chain with C852S
B2 was tested, and the “NR2B tyrosine phosphorylation, western blot” value [1] was “Dephosphorylation of NR2B and Src kinase was reversed by addition of dephostatin, and unaffected in presence of the dominant negative form of PTPMEG (CS)” and the “Src phosphorylation at position 418, western blot” value [2] was “Dephosphorylation of NR2B and Src kinase was reversed by addition of dephostatin, and unaffected in presence of the dominant negative form of PTPMEG (CS)”.
